Laboratory results: patent publication US10947272B2, “BACE1 inhibitor peptides” (HOFFMANN-LA ROCHE INC., priority 2015, dated 2021)
Where a name gives a salt, the structure may show the parent alone. Read-outs that look alike come from different tables or passages of the source. One block for each molecule: values may come before it. Numbered stars: 1 amine (or outer) side, 2 acyl side, 3 side chain; on linkers, the order of the positions; unused ones are H or OH. Square brackets hold non-standard residues; d marks the D form. Ends that are not written are not given here. Peptide text beside a SMILES is read from it. MetSta(3S,4S) = CSCC[C@H](N[*:1])[C@@H](O)CC(=O)[*:2]; Sta = CC(C)C[C@H](N)[C@@H](O)CC(=O)O

Experiments:
[1] = biological target: BACE1 (Asp2, β-secretase, Memapsin-2) in HEK293 cells stably expressing human APP695 (UniProt P56817); test: cell-based or functional assay
Chain of BACE1 (Asp2, β-secretase, Memapsin-2) in HEK293 cells stably expressing human APP695 (UniProt P56817) (P56817 46-501 limits assumed): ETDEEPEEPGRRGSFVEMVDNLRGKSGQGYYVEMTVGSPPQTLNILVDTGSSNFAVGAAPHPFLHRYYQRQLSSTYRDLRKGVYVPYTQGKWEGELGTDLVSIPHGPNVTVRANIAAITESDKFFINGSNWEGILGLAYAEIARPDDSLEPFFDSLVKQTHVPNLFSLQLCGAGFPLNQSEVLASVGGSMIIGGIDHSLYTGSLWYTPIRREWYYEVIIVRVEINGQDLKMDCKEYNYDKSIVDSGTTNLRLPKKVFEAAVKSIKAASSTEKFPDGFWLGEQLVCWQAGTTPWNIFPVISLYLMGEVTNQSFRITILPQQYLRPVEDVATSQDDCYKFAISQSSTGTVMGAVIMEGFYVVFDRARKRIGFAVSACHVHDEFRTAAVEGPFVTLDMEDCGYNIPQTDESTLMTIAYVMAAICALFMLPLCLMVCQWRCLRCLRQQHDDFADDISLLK

[2] = biological target: T1, BACE1 (Homo sapiens, UniProt P56817); test: Cellular Aβ-lowering assay (Aβ40 ELISA of culture supernatant); type: cell-based; conditions: HEK293 cells stably transfected with human APP wt (APP695), Aβ40 in supernatant, read-out: IC 50
T1 construct: Human HEK293 cells which are stably transfected with a vector expressing a cDNA of the human APP wt gene (APP695); endogenous in cells; host or cells: HEK293 (human), stably transfected with human APP695 wt cDNA
T1 sequence (P56817 46-501): as the sequence (P56817 46-501 limits assumed) above
Method: The compounds were investigated in accordance with the test given hereinafter. Cellular Aβ-Lowering Assay: Human HEK293 cells which are stably transfected with a vector expressing a cDNA of the human APP wt gene (APP695) were used to assess the potency of the compounds in a cellular assay. The cells were seeded in 96-well microtiter plates in cell culture medium (Iscove, plus 10% (v/v) fetal bovine serum, glutamine, penicillin/streptomycin) to about 80% confluence and the compounds were added at a 10× concentration in 1/10 volume of medium without FCS containing 8% DMSO (final concentration of DMSO was kept at 0.8% v/v). After 18-20 hrs incubation at 37° C. and 5% CO2 in a humidified incubator the culture supernatant was harvested for the determination of Aβ40 concentrations. 96 well ELISA plates (e.g., Nunc MaxiSorb) were coated with monoclonal antibody which specifically recognize the C-terminal end of Aβ40 (Brockhaus et al., NeuroReport 9, 1481-1486; 1998). After blocking of non-specific binding sites with e.g. 1% BSA and washing, the culture supernatants were added in suitable dilutions together with a horseradish peroxidase-coupled Aβ detection antibody (e.g., antibody 4G8, Senetek, Maryland Heights, Mo.) and incubated for 5 to 7 hrs. Subsequently the wells of the microtiter plate were washed extensively with Tris-buffered saline containing 0.05% Tween 20 and the assay was developed with tetramethylbenzidine/H2O2 in citric acid buffer. After stopping the reaction with one volume 1 N H2SO4 the reaction was measured in an ELISA reader at 450 nm wavelength. The concentrations of Aβ in the culture supernatants were calculated from a standard curve obtained with known amounts of pure Aβ peptide.

[3] = biological target: T2, BACE1 (Asp2, β-secretase, Memapsin-2) in HEK293 cells stably expressing human APP695 (UniProt P56817 46-501, limits assumed); test: cell-based or functional assay
T2 sequence (P56817 46-501 limits assumed): as above

[4] = biological target: T2, BACE1 (Asp2, β-secretase, Memapsin-2) …; test: cell-based or functional assay; remark: listed apart in the source
[5] = dual-site BACE1 inhibitors, 18-20 hrs incubation

Molecule: CC[C@H](C)[C@H](NC(=O)[C@H](Cc1ccccc1)NC(=O)[C@H](CCCNC(=N)N)NC(=O)[C@H](C)NC(=O)CN)C(=O)N1CCC[C@H]1C(=O)N[C@@H](C)C(=O)NCC(=O)N[C@H](CCCCN)C(=O)NCC(=O)N[C@@H](CCC(=O)O)C(=O)N[C@H](C(=O)N[C@@H](CC(N)=O)C(=O)N[C@@H](CC(C)C)[C@@H](O)CC(=O)N[C@H](C(=O)N[C@@H](C)C(=O)N[C@@H](CCC(=O)O)C(=O)N1CCC[C@@H]1C(N)=O)C(C)C)C(C)C [Example 16, Gly-Ala-Arg-Phe-Ile-Pro-Ala-Gly-DLys-Gly-Glu-Val-Asn-Sta-Val-Ala-Glu-DPro-NH2 × 3TFA] (H-GARFIPAG[dK]GEVN[Sta]VAE[dP]-NH2; N-terminus assumed)
IC50 [2, 5]: 0.42 µM

Molecule: CSCC[C@H](NC(=O)[C@H](CC(N)=O)NC(=O)[C@@H](NC(=O)[C@@H](N)CCC(=O)O)C(C)C)[C@@H](O)CC(=O)N[C@H](C(=O)N[C@@H](C)C(=O)N[C@@H](CCC(=O)O)C(=O)N[C@H](Cc1ccccc1)C(N)=O)C(C)C [Example A2, Glu-Val-Asn-MetSta-Val-Ala-Glu-DPhe-NH2 × TFA, reference compound] (H-EVN[MetSta(3S,4S)]VAE[dF]-NH2)
IC50 ([2]; active site motifs alone): > 40 µM

Molecule: CC(C)C[C@H](NC(=O)[C@@H]1CCCN1C(=O)[C@@H](CCCCN)NC(=O)[C@H](Cc1ccccc1)NC(=O)[C@H](Cc1ccc(O)cc1)NC(=O)[C@@H]1CCCN1C(=O)[C@@H](N)Cc1ccc(O)cc1)C(=O)NCC(=O)N[C@H](CCCCN)C(=O)NCC(=O)N[C@@H](CCC(=O)O)C(=O)N[C@H](C(=O)N[C@@H](CC(N)=O)C(=O)N[C@@H](CC(C)C)[C@@H](O)CC(=O)N[C@H](C(=O)N[C@@H](C)C(=O)N[C@@H](CCC(=O)O)C(=O)N1CCC[C@@H]1C(N)=O)C(C)C)C(C)C [Example 13, Tyr-Pro-Tyr-Phe-DLys-Pro-Leu-Gly-DLys-Gly-Glu-Val-Asn-Sta-Val-Ala-Glu-DPro-NH2 × 3TFA] (H-YPYF[dK]PLG[dK]GEVN[Sta]VAE[dP]-NH2)
IC50 [2, 5]: > 40 µM

B1: Ac-Gln-Gln-Tyr-Pro-Tyr-Phe-Lys-Pro-Ala-Asn-NH2 (peptide)
peptide: Ac-QQYPYFKPAN-NH2
IC 50, cellular Aβ-lowering assay (Aβ40 in supernatant of HEK293 cells expressing human APP695) [3]: > 40 µM

B3: Ac-YPTFKPANGS-NH2 (peptide)
peptide: Ac-YPTFKPANGS-NH2
modifications: not fully specified; printed as Ac-YPTFKPANGS-NH2
IC 50, cellular Aβ-lowering assay (Aβ40 in supernatant of HEK293 cells expressing human APP695) [3]: > 40 µM

B4: Ac-Gly-Asp-Tyr-Pro-Lys-Phe-Ile-Pro-Ala-Ser-NH2 (peptide)
peptide: Ac-GDYPKFIPAS-NH2
IC 50, cellular Aβ-lowering assay (Aβ40 in supernatant of HEK293 cells expressing human APP695) [3]: > 40 µM

B5: Ac-Ser-Thr-Gly-Ala-Arg-Phe-Ile-Pro-Ala-Asn-NH2 (peptide)
peptide: Ac-STGARFIPAN-NH2
IC 50, cellular Aβ-lowering assay (Aβ40 in supernatant of HEK293 cells expressing human APP695) [3]: > 40 µM

B6: Ac-Leu-Thr-Thr-Tyr-Pro-Tyr-Phe-Lys-Pro-Ala-NH2 (peptide)
peptide: Ac-LTTYPYFKPA-NH2
IC 50, cellular Aβ-lowering assay (Aβ40 in supernatant of HEK293 cells expressing human APP695) [3]: 14.4 µM

B7: Ac-Gly-Ser-Tyr-Pro-Lys-Phe-Ile-Asp-Ala-Asn-NH2 (peptide)
peptide: Ac-GSYPKFIDAN-NH2
IC 50, cellular Aβ-lowering assay (Aβ40 in supernatant of HEK293 cells expressing human APP695) [3]: > 40 µM

B10: Ac-Gly-Asp-Tyr-Pro-Lys-Phe-Ile-Ser-Ala-Asn-NH2 (peptide)
peptide: Ac-GDYPKFISAN-NH2
IC 50, cellular Aβ-lowering assay (Aβ40 in supernatant of HEK293 cells expressing human APP695) [3]: > 40 µM

Further lines, results first:

IC 50, cellular Aβ-lowering assay (Aβ40 in supernatant of HEK293 cells expressing human APP695) [1]: 34.8 µM
Molecule: H-YPY[dK]IPLG[dK]GEVN[Sta]VAE[dP]-NH2

IC50 ([2]; exosite motifs alone): > 40 µM
Molecule: CC[C@H](C)[C@H](NC(=O)[C@H](Cc1ccccc1)NC(=O)[C@H](CCCCN)NC(=O)[C@@H]1CCCN1C(=O)[C@H](Cc1ccc(O)cc1)NC(=O)[C@H](CO)NC(=O)CNC(C)=O)C(=O)N[C@@H](CC(=O)O)C(=O)N[C@@H](C)C(=O)N[C@@H](CC(N)=O)C(N)=O [Example E6, Ac-Gly-Ser-Tyr-Pro-Lys-Phe-Ile-Asp-Ala-Asn-NH2] (Ac-GSYPKFIDAN-NH2)

IC 50, cellular Aβ-lowering assay (Aβ40 in supernatant of HEK293 cells expressing human APP695) [4]: > 40 µM
B2: Glu-Val-Asn-Sta-Val-Ala-Glu-DPro-NH2 × TFA (peptide)
peptide: EVN[Sta]VAE[dP]-NH2
modifications: also: TFA salt

IC 50, cellular Aβ-lowering assay (Aβ40 in supernatant of HEK293 cells expressing human APP695) [4]: > 40 µM
B8: Glu-Val-Asn-MetSta-Val-Ala-Glu-DPhe-NH2 × TFA (peptide)
peptide: EVN[MetSta(3S,4S)]VAE[dF]-NH2
modifications: also: TFA salt

IC 50, cellular Aβ-lowering assay (Aβ40 in supernatant of HEK293 cells expressing human APP695) [4]: > 40 µM
B9: Glu-Val-Asn-Sta-Val-Ala-Glu-Phe-NH2 × TFA (peptide)
peptide: EVN[Sta]VAEF-NH2
modifications: also: TFA salt
